# From PMC8309402, “Evolutionary Implications of a Peroxidase with High Affinity for Cinnamyl Alcohols from Physcomitrium patens, a Non-Vascular Plant” (Plants, 2021)
# B1: PpaPrx19 (Physcomitrium patens) (protein)
# chain: TTDFYAKSCPRIHSIVKAEIKKAVNVEKRMAASLIRLHFHDCFVHGCDGSILLDSIPGMDSEKFAPPNDRSARGYEAIDAIKVALEKACPRTVSCADILAIAYRDSAVEVGLVPEYPVPFGRRDSLRAAPIAEVNLRLPGPDFDISTLKASFANQSLDERDLVALSGAHTIGRVRCQFVRLFLNDPGTNADFKKELARLCAPTVDAFTLQNLDLKTPDKFDNNYYKNLRRGEGIIRSDQVLWSSEGTHQKITKDFAENQENFFRQFIESSIKMGKIKPPPGSPSEIRLNCHQANPRPLIEQVVAVE
# notes: native, purified from gametophores (ammonium sulfate, phenyl Sepharose, SP Sepharose); mature secreted protein, 332 aa precursor incl; 26 aa N-terminal signal peptide (predicted); 46 kDa lipase (XP_001755452) co-purified
# Key:
# purified protein [1] = substrate: COc1cc(/C=C/CO)ccc1O; assay: purified protein; format: biochemical, Physcomitrium patens; details: 0.5 mM H2O2 (saturating), 50 mM sodium acetate pH 5.0, 5-100 μM substrate
# purified protein [2] = substrate: COc1cc(/C=C/CO)cc(OC)c1O; assay: purified protein; format: biochemical, Physcomitrium patens; details: 0.5 mM H2O2 (saturating), 50 mM sodium acetate pH 5.0, 1-110 μM substrate
protein,measurement,setting,value
B1,Km,purified protein [1],16.7 µM
same,kcat,purified protein [1],3940 s⁻¹
same,kcat/Km,purified protein [1],2.36e+08 M⁻¹ s⁻¹
same,Km,purified protein [2],20.8 µM
same,kcat,purified protein [2],281 s⁻¹
same,kcat/Km,purified protein [2],1.35e+07 M⁻¹ s⁻¹
